Where a chain is given by its changes, count along the chain named.
T1: human TIM-3 on CHOK1 stable cell line (CHOK1-hTIM-3) (human, UniProt Q8TDQ0 22-301)
T1 sequence: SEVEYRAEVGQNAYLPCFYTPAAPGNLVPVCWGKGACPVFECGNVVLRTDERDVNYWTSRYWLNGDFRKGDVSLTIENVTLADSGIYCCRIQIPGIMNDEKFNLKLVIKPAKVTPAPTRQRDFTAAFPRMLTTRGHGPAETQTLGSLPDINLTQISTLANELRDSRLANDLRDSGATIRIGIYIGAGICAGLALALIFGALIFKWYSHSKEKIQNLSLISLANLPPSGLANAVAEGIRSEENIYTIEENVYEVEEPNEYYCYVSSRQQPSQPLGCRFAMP

T2: monkey TIM-3 on CHOK1 stable cell line (CHOK1-cTIM-3) (monkey)
T2 chain: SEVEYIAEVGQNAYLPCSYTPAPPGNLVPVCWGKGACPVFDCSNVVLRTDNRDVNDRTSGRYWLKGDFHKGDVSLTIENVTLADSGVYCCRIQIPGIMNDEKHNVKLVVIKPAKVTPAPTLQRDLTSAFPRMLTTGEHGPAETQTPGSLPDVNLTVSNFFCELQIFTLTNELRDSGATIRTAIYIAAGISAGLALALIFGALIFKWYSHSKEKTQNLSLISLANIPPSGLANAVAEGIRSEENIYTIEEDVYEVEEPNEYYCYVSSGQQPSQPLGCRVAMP

T3: human TIM-3 extracellular domain protein with hFc tag (hTIM-3-hFc) (human, UniProt Q8TDQ0 22-200)
T3 construct: not shown: human IgG Fc fragment (hFc) of the pCpC vector
T3 sequence: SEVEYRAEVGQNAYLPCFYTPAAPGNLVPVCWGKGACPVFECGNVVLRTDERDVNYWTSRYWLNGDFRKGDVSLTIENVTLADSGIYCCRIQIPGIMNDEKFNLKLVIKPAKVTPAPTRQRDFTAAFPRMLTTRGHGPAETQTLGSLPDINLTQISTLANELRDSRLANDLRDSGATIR

T4: murine TIM-3 extracellular domain protein with hFc tag (mTIM-3-hFc) (mouse, UniProt Q8VIM0 29-191)
T4 construct: also called mouse TIM-3 extracellular domain protein; not shown: human IgG Fc fragment (hFc) of the pCpC vector
T4 chain: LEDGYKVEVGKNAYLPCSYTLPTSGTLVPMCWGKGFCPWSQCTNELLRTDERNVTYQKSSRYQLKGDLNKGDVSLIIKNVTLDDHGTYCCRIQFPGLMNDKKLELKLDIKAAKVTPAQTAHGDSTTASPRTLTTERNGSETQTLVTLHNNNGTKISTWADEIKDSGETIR

T5: monkey TIM-3 extracellular domain protein with hFc tag (cTIM-3-hFc) (monkey)
T5 construct: not shown: human IgG Fc fragment (hFc) of the pCpC vector
T5 chain: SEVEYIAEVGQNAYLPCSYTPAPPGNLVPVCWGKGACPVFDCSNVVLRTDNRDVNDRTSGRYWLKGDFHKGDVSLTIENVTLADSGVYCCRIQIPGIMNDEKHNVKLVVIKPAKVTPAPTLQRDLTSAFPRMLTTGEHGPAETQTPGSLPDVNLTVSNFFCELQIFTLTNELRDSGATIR

T6: monkey TIM-3 protein with hFc tag (cTIM-3-hFc protein) (monkey; human)
T6 construct: Made in HEK293 cells; also called monkey TIM-3 extracellular domain protein; not shown: human IgG Fc fragment (hFc) of the pCpC vector
T6 chain: T5 chain

T7: murine TIM-3 protein with hFc tag (mTIM-3-hFc protein) (mouse; human, UniProt Q8VIM0 29-191)
T7 construct: Made in HEK293 cells; also called mouse TIM-3 extracellular domain protein; not shown: human IgG Fc fragment (hFc) of the pCpC vector
T7 chain: T4 chain

B1: 57F4E5 fully human TIM-3 antibody (human IgG4, kappa) (antibody, V domains shown)
VH: EVQLVESGGGLVQPGGSLRLSCAASGFTFSSYWMSWVRQAPGKGLEWVANIKQDGSEKYYVDSVKGRFTISRDSAKNSLYLQMNSLRAEDTAMYFCARDSNFFDYWGQGTLVTVSS
VL: ETVMTQSPATLSVSPGERATLSCRASQSVSSNLAWYQRKPGQAPRLLIYFSSTRATGIPARFSGSGSGTEFTLTISSLQSEDFAVYYCQQYNNWPLTFGGGTKVEIK
B2: 134H3G6 fully human TIM-3 antibody (human IgG4, kappa) (antibody, V domains shown)
VH: EVQLVESGGGLVQPGGSLRLSCAASGFTFSNSWMTWVRQAPGKGLEWVANIKQAGTEKYYVDSVKGRFTISRDNAKNSLYLQMNSLRAEDTAVYYCNSGSNYFDYWGQGTLVTVSS
VL: B1 VL with T2I, S26R, S28N, V29F, S30Y, R38Q, F50G, S51A
B3: 57F4E5 (TIM-3 antibody purified from hybridoma, chimeric antibody of Example 2) (antibody, V domains shown)
VH: B1 VH
VL: B1 VL
notes: From hybridoma of Harbour H2L2 transgenic mice: human variable regions, rat constant regions
B4: 18D2H2 (TIM-3 antibody purified from hybridoma, chimeric antibody of Example 2) (antibody, V domains shown)
VH: EVQLVESGGDLVQPGGSLRLSCAASGFTFSTYWMTWVRQAPGRGLEWVANIKQDGSAKYYVDSVKGRFTLSRDDAKNSLYLQMNSLRAEDTAVYYCARGSNWFDYWGQGTLVTVSS
VL: B1 VL with S26N, S28N, S30Y, R38Q, F50D, S51A, I58F
notes: as for B3
B5: 18D2H2 fully human TIM-3 antibody (human IgG4, kappa) (antibody, V domains shown)
VH: B4 VH
VL: B1 VL with S26N, S28N, S30Y, R38Q, F50D, S51A, I58F
B6: 39E5H1 (TIM-3 antibody purified from hybridoma, chimeric antibody of Example 2) (antibody, V domains shown)
VH: EVQLVESGGGLVQPGGSLRLSCAASGFTFSSYWMSWVRQAPGKGLEWVANIKRGGSERYYVDSVKGRFTISGDNAKNSVYLQMNSLRAEDTAVYYCARGSNWFDPWGQGTLVTVSS
VL: B1 VL with T10I, S30Y, R38Q, P40L, F50D, S51A, L96I, G100Q, K103R, V104L
notes: as for B3
B7: 134H3G6 (TIM-3 antibody purified from hybridoma, chimeric antibody of Example 2) (antibody, V domains shown)
VH: B2 VH
VL: B1 VL with T2I, S26R, S28N, V29F, S30Y, R38Q, F50G, S51A
notes: as for B3
B8: 34B6D8 (TIM-3 antibody purified from hybridoma, chimeric antibody of Example 2) (antibody, V domains shown)
VH: B6 VH with S31T, S35T, G44R, R53Q, S56G, E57D, R58K, G72T, V79L
VL: EIVMTQSPATLSMSPGERATLSCRASQSVYDNLAWYQQKPGQAPRLLIYGASTRATGIPARFSGSGSGTEFTLTISSLQSEDFALYYCQQYTHWPITFGQGTRLEIK
notes: as for B3
B9: 215A8F2 fully human TIM-3 antibody (human IgG4, kappa) (antibody, V domains shown)
VH: QVQLQQWGAGLLKPSETLSLTCTVYGGSFSGYYWNWIRQPPGKGLEWLGEINHSGSTNYNPSLKRRVTISVDTSKNQFSLKLSSVTAADTAVYYCARVYYYGPFDFWGQGTLVTVSS
VL: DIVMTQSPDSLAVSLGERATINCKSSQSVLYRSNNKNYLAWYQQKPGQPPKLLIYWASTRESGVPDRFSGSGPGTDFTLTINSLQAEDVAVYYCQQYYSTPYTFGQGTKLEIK
B10: 215A8F2 (TIM-3 antibody purified from hybridoma, chimeric antibody of Example 2) (antibody, V domains shown)
VH: B9 VH
VL: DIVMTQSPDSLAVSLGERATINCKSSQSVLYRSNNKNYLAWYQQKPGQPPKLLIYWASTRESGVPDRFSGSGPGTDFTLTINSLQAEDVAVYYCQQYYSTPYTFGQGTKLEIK
notes: as for B3
B11: 7A4F10 fully human TIM-3 antibody (human IgG4, kappa) (antibody, V domains shown)
VH: EVQLLESGGGLVQPGGSLRLSCAASGFTFRTHLISWVRQAPGKGLEWVAAITGSGGSTYYADSVKGRFIISRDNSKNTLFLQMNSLRAEDTAVYYCAKDGGSGSYDDFWGQGTLVTVSS
VL: ETVLTQSPVTLSLSPGERATLSCRASQSVGSYLAWYQQKPGQAPRLLIYDASNRATGIPARFSGSGSGTDFTLTISSLEPEDFAVYYCQQRSNWPPTFGQGTKVEIK
B12: 7A4F10 (TIM-3 antibody purified from hybridoma, chimeric antibody of Example 2) (antibody, V domains shown)
VH: B11 VH
VL: B11 VL
notes: as for B3

Key:
[1] = molecular target: T1, human TIM-3 on CHOK1 stable cell line …; test: FACS, CHOK1-hTIM-3 cells, 0 nM antibody
[2] = molecular target: T2, monkey TIM-3 on CHOK1 stable cell line …; test: FACS, CHOK1-cTIM-3 cells, 8 nM antibody
[3] = molecular target: T3, human TIM-3 extracellular domain …; test: ELISA, coated human TIM-3 ECD protein, 0.0667 nM antibody
[4] = molecular target: T4, murine TIM-3 extracellular domain …; test: ELISA, coated mouse TIM-3 ECD protein, 0.0067 nM antibody
[5] = molecular target: T5, monkey TIM-3 extracellular domain …; test: ELISA, coated monkey TIM-3 ECD protein, 6.6667 nM antibody
[6] = molecular target: T5, monkey TIM-3 extracellular domain …; test: ELISA, coated monkey TIM-3 ECD protein, 66.667 nM antibody
[7] = molecular target: T6, monkey TIM-3 protein with hFc tag …; test: ELISA, coated cTIM-3-hFc; antibody 0.0667 nM
Excerpt: (§1) The amino acid sequence 22-200 of the extracellular domain of the human TIM-3 protein described in the step of Example 1 (as shown in SEQ ID NO. 71 in the sequence listing) was cloned into a pCpC vector having a human IgG Fc fragment (hFc), and transfected into HEK293 cells. The cell culture medium was collected, and purified to obtain the human TIM-3 protein with hFc tag (herein referred to as hTIM-3-hFc protein). The amino acid sequence 22-201 of the extracellular domain of the monkey TIM-3 protein (as shown in SEQ ID NO. 72 in the sequence listing) was cloned into a pCpC vector having a human IgG Fc fragment (hFc), and transfected into HEK293 cells. The cell culture medium was collected, and purified to obtain the monkey TIM-3 protein with hFc tag (herein referred to as cTIM-3-hFc protein). […] The cell culture medium was collected, and purified to obtain the murine TIM-3 protein with hFc tag (herein referred to as mTIM-3-hFc protein). Purified human, monkey, and mouse TIM-3 extracellular domain proteins (hTIM-3-hFc, cTIM-3-hFc, and mTIM-3-hFc) were diluted with PBS to a final concentration of 1.0 μg/ml and then added to a 96-well ELISA plate with 100 μl per well. The plate was sealed with plastic film and incubated overnight at 4° C. The plate was washed 4 times with the plate washing solution (PBS+0.01% Tween20) on the next day, and added with the blocking solution (PBS+0.01% Tween20+1% BSA) and sealed at room temperature for 1-2 hours. The blocking solution was poured out. 50-100 μl of the antibody sample to be tested was added to each well. The plate was incubated at 37° C. for 1-2 hours, and washed 2-3 times with plate washing solution (PBS+0. 01% Tween20). HRP (horseradish peroxidase) labeled secondary antibody was added. The plate was incubated at 37° C. for 1-2 hours, and washed 2-3 times with plate washing solution (PBS+0. 01% Tween20). […] of TMB substrate was added to each well. After incubated at room temperature for 15-30 minutes, the plate was added with […] stop solution (1.0N HCl) to each well. An ELISA plate reader (TiterMax 384plus, Molecular Device) was used to read the A450 nm value.

[8] = molecular target: T6, monkey TIM-3 protein with hFc tag …; test: ELISA, coated cTIM-3-hFc; antibody 66.667 nM
Excerpt: as §1

[9] = molecular target: T7, murine TIM-3 protein with hFc tag …; test: ELISA, coated mTIM-3-hFc; antibody 0.0007 nM
Excerpt: as §1

Binder | Mean fluorescence intensity [1] | Mean fluorescence intensity [2] | OD450 [3] | OD450 [4] | OD450 [5] | OD450 [6] | OD450 [7] | OD450 [8] | OD450 [9]
B1 | 2.9 | 259 | 1.22 | 0.23 | 3.29 | 3.42 |  |  | 
B2 | 2.8 | 401 | 1.28 | 0.22 | 3.19 | 3.11 |  |  | 
B3 |  |  |  |  |  |  | 2.68 | 3.47 | 0.67
B4 |  |  |  |  |  |  | 0.74 | 3.44 | 0.64
B5 | 2.8 | 475 | 1.57 | 0.22 | 3.3 | 3.27 |  |  | 
B6 |  |  |  |  |  |  | 1.98 | 3.47 | 0.63
B7 |  |  |  |  |  |  | 0.64 | 3.43 | 0.62
B8 |  |  |  |  |  |  | 1.92 | 3.52 | 0.65
B9 | 2.9 | 362 | 1.29 | 0.22 | 3.28 | 3.24 |  |  | 
B10 |  |  |  |  |  |  | 1.5 | 3.49 | 0.67
B11 | 2.8 | 325 | 1.69 | 0.23 | 3.12 | 3.26 |  |  | 
B12 |  |  |  |  |  |  | 0.7 | 3.46 | 0.64

From patent publication US20220033501A1 (SHANGHAI PHARMAEXPLORER, published 2022)
